Data: patent publication US20140087995A1 (published 2014)
Numbered stars: 1 amine (or outer) side, 2 acyl side, 3 side chain; on linkers, the order of the positions; unused ones are H or OH. Bridge positions count the residues as written; N and C are the ends. * marks the point of attachment. C20 diacid = O=C(O)CCCCCCCCCCCCCCCCCCC(=O)*; γGlu = O=C(O)[C@H](CCC(=O)[*:2])N[*:1]; AEEA = NCCOCCOCC(=O)O

T1: human calcitonin receptor (human, UniProt P30988 25-474)
T1 sequence (looked up): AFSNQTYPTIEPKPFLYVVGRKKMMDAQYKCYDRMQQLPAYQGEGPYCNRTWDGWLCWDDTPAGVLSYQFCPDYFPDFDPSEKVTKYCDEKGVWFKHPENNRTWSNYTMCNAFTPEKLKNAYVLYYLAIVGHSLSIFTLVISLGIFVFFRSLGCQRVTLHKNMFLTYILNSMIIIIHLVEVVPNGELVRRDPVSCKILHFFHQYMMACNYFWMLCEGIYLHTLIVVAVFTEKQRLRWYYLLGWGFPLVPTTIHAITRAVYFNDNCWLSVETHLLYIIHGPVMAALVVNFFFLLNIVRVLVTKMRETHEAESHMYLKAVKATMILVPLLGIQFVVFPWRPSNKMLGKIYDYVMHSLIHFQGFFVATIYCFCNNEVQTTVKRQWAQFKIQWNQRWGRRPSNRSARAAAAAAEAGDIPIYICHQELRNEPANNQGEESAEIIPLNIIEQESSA


The binders below were run against T1, human calcitonin receptor (assay: cell-based or functional assay).

Row | Binder | hCTR funct. EC50 (CRE luciferase reporter, BHK cells) [pM]
1 | {C20 diacid-γGlu-AEEA-AEEA}-KCNTATCATQRLAEFLRHSSPNFGAIPSSTNVGSNTP-NH2 (disulfide 2-7; SMILES CC[C@H](C)[C@H](NC(=O)[C@H](C)NC(=O)CNC(=O)[C@H](Cc1ccccc1)NC(=O)[C@H](CC(N)=O)NC(=O)[C@@H]1CCCN1C(=O)[C@H](CO)NC(=O)[C@H](CO)NC(=O)[C@H](Cc1c[nH]cn1)NC(=O)[C@H](CCCNC(=N)N)NC(=O)[C@H](CC(C)C)NC(=O)[C@H](Cc1ccccc1)NC(=O)[C@H](CCC(=O)O)NC(=O)[C@H](C)NC(=O)[C@H](CC(C)C)NC(=O)[C@H](CCCNC(=N)N)NC(=O)[C@H](CCC(N)=O)NC(=O)[C@@H](NC(=O)[C@H](C)NC(=O)[C@@H]1CSSC[C@H](NC(=O)[C@H](CCCCN)NC(=O)COCCOCCNC(=O)COCCOCCNC(=O)CC[C@H](NC(=O)CCCCCCCCCCCCCCCCCCC(=O)O)C(=O)O)C(=O)N[C@@H](CC(N)=O)C(=O)N[C@@H]([C@@H](C)O)C(=O)N[C@@H](C)C(=O)N[C@@H]([C@@H](C)O)C(=O)N1)[C@@H](C)O)C(=O)N1CCC[C@H]1C(=O)N[C@@H](CO)C(=O)N[C@@H](CO)C(=O)N[C@H](C(=O)N[C@@H](CC(N)=O)C(=O)N[C@H](C(=O)NCC(=O)N[C@@H](CO)C(=O)N[C@@H](CC(N)=O)C(=O)N[C@H](C(=O)N1CCC[C@H]1C(N)=O)[C@@H](C)O)C(C)C)[C@@H](C)O, Synthetic acylated analogue of human amylin; also called compound 20) | 285
2 | {C20 diacid-γGlu}-KCNTATCATQRLADFLRHSSPNFGAIPSSTNVGSNTP-NH2 (disulfide 2-7; SMILES CC[C@H](C)[C@H](NC(=O)[C@H](C)NC(=O)CNC(=O)[C@H](Cc1ccccc1)NC(=O)[C@H](CC(N)=O)NC(=O)[C@@H]1CCCN1C(=O)[C@H](CO)NC(=O)[C@H](CO)NC(=O)[C@H](Cc1c[nH]cn1)NC(=O)[C@H](CCCNC(=N)N)NC(=O)[C@H](CC(C)C)NC(=O)[C@H](Cc1ccccc1)NC(=O)[C@H](CC(=O)O)NC(=O)[C@H](C)NC(=O)[C@H](CC(C)C)NC(=O)[C@H](CCCNC(=N)N)NC(=O)[C@H](CCC(N)=O)NC(=O)[C@@H](NC(=O)[C@H](C)NC(=O)[C@@H]1CSSC[C@H](NC(=O)[C@H](CCCCN)NC(=O)CC[C@H](NC(=O)CCCCCCCCCCCCCCCCCCC(=O)O)C(=O)O)C(=O)N[C@@H](CC(N)=O)C(=O)N[C@@H]([C@@H](C)O)C(=O)N[C@@H](C)C(=O)N[C@@H]([C@@H](C)O)C(=O)N1)[C@@H](C)O)C(=O)N1CCC[C@H]1C(=O)N[C@@H](CO)C(=O)N[C@@H](CO)C(=O)N[C@H](C(=O)N[C@@H](CC(N)=O)C(=O)N[C@H](C(=O)NCC(=O)N[C@@H](CO)C(=O)N[C@@H](CC(N)=O)C(=O)N[C@H](C(=O)N1CCC[C@H]1C(N)=O)[C@@H](C)O)C(C)C)[C@@H](C)O, Synthetic acylated analogue of human amylin; also called compound 10) | 70

Results, then the binder that gave them:

Row | hCTR funct. EC50 (CRE luciferase reporter, BHK cells) [pM] | Binder
3 | 160 | {C20 diacid-γGlu}-KCNTATCATQRLAEFLRHSSPNFGAPLSSTNVGSNTP-NH2 (disulfide 2-7; SMILES CC(C)C[C@H](NC(=O)[C@H](CCCNC(=N)N)NC(=O)[C@H](CCC(N)=O)NC(=O)[C@@H](NC(=O)[C@H](C)NC(=O)[C@@H]1CSSC[C@H](NC(=O)[C@H](CCCCN)NC(=O)CC[C@H](NC(=O)CCCCCCCCCCCCCCCCCCC(=O)O)C(=O)O)C(=O)N[C@@H](CC(N)=O)C(=O)N[C@@H]([C@@H](C)O)C(=O)N[C@@H](C)C(=O)N[C@@H]([C@@H](C)O)C(=O)N1)[C@@H](C)O)C(=O)N[C@@H](C)C(=O)N[C@@H](CCC(=O)O)C(=O)N[C@@H](Cc1ccccc1)C(=O)N[C@@H](CC(C)C)C(=O)N[C@@H](CCCNC(=N)N)C(=O)N[C@@H](Cc1c[nH]cn1)C(=O)N[C@@H](CO)C(=O)N[C@@H](CO)C(=O)N1CCC[C@H]1C(=O)N[C@@H](CC(N)=O)C(=O)N[C@@H](Cc1ccccc1)C(=O)NCC(=O)N[C@@H](C)C(=O)N1CCC[C@H]1C(=O)N[C@@H](CC(C)C)C(=O)N[C@@H](CO)C(=O)N[C@@H](CO)C(=O)N[C@H](C(=O)N[C@@H](CC(N)=O)C(=O)N[C@H](C(=O)NCC(=O)N[C@@H](CO)C(=O)N[C@@H](CC(N)=O)C(=O)N[C@H](C(=O)N1CCC[C@H]1C(N)=O)[C@@H](C)O)C(C)C)[C@@H](C)O, Synthetic acylated analogue of human amylin; also called compound 5)
4 | 112 | {C20 diacid-γGlu}-KCNTATCATQRLAEFLRHSSPNFGAIPSSTNVGSDTP-NH2 (disulfide 2-7; SMILES CC[C@H](C)[C@H](NC(=O)[C@H](C)NC(=O)CNC(=O)[C@H](Cc1ccccc1)NC(=O)[C@H](CC(N)=O)NC(=O)[C@@H]1CCCN1C(=O)[C@H](CO)NC(=O)[C@H](CO)NC(=O)[C@H](Cc1c[nH]cn1)NC(=O)[C@H](CCCNC(=N)N)NC(=O)[C@H](CC(C)C)NC(=O)[C@H](Cc1ccccc1)NC(=O)[C@H](CCC(=O)O)NC(=O)[C@H](C)NC(=O)[C@H](CC(C)C)NC(=O)[C@H](CCCNC(=N)N)NC(=O)[C@H](CCC(N)=O)NC(=O)[C@@H](NC(=O)[C@H](C)NC(=O)[C@@H]1CSSC[C@H](NC(=O)[C@H](CCCCN)NC(=O)CC[C@H](NC(=O)CCCCCCCCCCCCCCCCCCC(=O)O)C(=O)O)C(=O)N[C@@H](CC(N)=O)C(=O)N[C@@H]([C@@H](C)O)C(=O)N[C@@H](C)C(=O)N[C@@H]([C@@H](C)O)C(=O)N1)[C@@H](C)O)C(=O)N1CCC[C@H]1C(=O)N[C@@H](CO)C(=O)N[C@@H](CO)C(=O)N[C@H](C(=O)N[C@@H](CC(N)=O)C(=O)N[C@H](C(=O)NCC(=O)N[C@@H](CO)C(=O)N[C@@H](CC(=O)O)C(=O)N[C@H](C(=O)N1CCC[C@H]1C(N)=O)[C@@H](C)O)C(C)C)[C@@H](C)O, Synthetic acylated analogue of human amylin; also called compound 11)
5 | 87 | {C20 diacid-γGlu}-KCNTATCATQRLAEFLRHSSPNFGAIPSSTNVGSNTP-NH2 (disulfide 2-7; SMILES CC[C@H](C)[C@H](NC(=O)[C@H](C)NC(=O)CNC(=O)[C@H](Cc1ccccc1)NC(=O)[C@H](CC(N)=O)NC(=O)[C@@H]1CCCN1C(=O)[C@H](CO)NC(=O)[C@H](CO)NC(=O)[C@H](Cc1c[nH]cn1)NC(=O)[C@H](CCCNC(=N)N)NC(=O)[C@H](CC(C)C)NC(=O)[C@H](Cc1ccccc1)NC(=O)[C@H](CCC(=O)O)NC(=O)[C@H](C)NC(=O)[C@H](CC(C)C)NC(=O)[C@H](CCCNC(=N)N)NC(=O)[C@H](CCC(N)=O)NC(=O)[C@@H](NC(=O)[C@H](C)NC(=O)[C@@H]1CSSC[C@H](NC(=O)[C@H](CCCCN)NC(=O)CC[C@H](NC(=O)CCCCCCCCCCCCCCCCCCC(=O)O)C(=O)O)C(=O)N[C@@H](CC(N)=O)C(=O)N[C@@H]([C@@H](C)O)C(=O)N[C@@H](C)C(=O)N[C@@H]([C@@H](C)O)C(=O)N1)[C@@H](C)O)C(=O)N1CCC[C@H]1C(=O)N[C@@H](CO)C(=O)N[C@@H](CO)C(=O)N[C@H](C(=O)N[C@@H](CC(N)=O)C(=O)N[C@H](C(=O)NCC(=O)N[C@@H](CO)C(=O)N[C@@H](CC(N)=O)C(=O)N[C@H](C(=O)N1CCC[C@H]1C(N)=O)[C@@H](C)O)C(C)C)[C@@H](C)O, Synthetic acylated analogue of human amylin; also called compound 8)
